Results as given in US20210032351A1 (XDCEXPLORER SHANGHAI, published 2021).
Positions count from the first letter of the chain named.

How the values were obtained:
[1] = target: T1, human EGFRvIII protein on the surface of U87MG-hEGFRvIII cells (human, UniProt P00533 25-1210); assay: cell-based or functional assay
[2] = target: T1, human EGFRvIII protein on the surface …; assay: FACS on U87MG-hEGFRvIII cells
Method: The cells are washed twice with the HBSS buffer and are counted, and then the cells are diluted with the HBSS buffer to 2×10⁶ cells/ml, added with 1% goat serum blocking solution, with the percentage being the mass percentage, and incubated on ice for 30 minutes, and then centrifugally washed twice with the HBSS buffer. The collected cells are suspended to 2×10⁶ cells/mL with an FACS buffer (HBSS+1% BSA, with the percentage being the mass percentage), added to a 96-well FACS reaction plate at 100 μL/well, then added with 100 μL/well of the purified EGFRvIII antibody (samples to be tested) obtained in example 2, and incubated on ice for 2 hours. The plate is centrifugally washed twice with the FACS buffer, added with 100 μL/well of a fluorescence (Alexa 488) labeled secondary antibody (purchased from Invitrogen), and then incubated on ice for 1 hour. The plate is centrifugally washed 3 times with the FACS buffer, added with 100 μL/well of a fixing solution [4% (v/v) paraformaldehyde] for suspending the cells, and centrifugally washed twice with the FACS buffer after 10 minutes. The cells are suspended in 100 μL of the FACS buffer, and the results are detected and analyzed by FACS (FACS Calibur, purchased from BD). Data analysis is performed by using the software (CellQuest) to obtain the mean fluorescence intensity (MFI) of the cells. Data is further analyzed by using the software (GraphPad Prism5) to perform data fitting and calculate EC50. […] A431 cells (human epidermal cell cancer cell lines) have a large amount of wild-type EGFR protein expressed on the surface thereof. […] U87MG cells (human glioma cell lines) have a small amount of wild-type EGFR protein expressed on the surface thereof, while HEB cells (human glioma cell lines) have a high level of wild-type EGFR protein expression on the surface thereof.

[3] = target: T2, EGFR-his (purchased from Sino Biological) (UniProt P00533 25-645); assay: BLI (OctetRED), antibody on anti-human Fc (AHC) biosensor, EGFR-his in solution
T2 construct: Bought protein; also called EGFR protein; not shown: his tag
From the text: (§1) BLI technology involves: detecting the interaction of the molecules fixed on the sensor with the molecules in the solution, which results in that the biofilm thickness is increased, and the interference spectrum curve is shifted along the direction of increased wavelength, wherein the phase shift of light waves can be detected by workstation in real time, and analyzed to quantitatively obtain the changes in the number of molecules on the sensor surface and related concentration and kinetic data.

[4] = target: T3, EGFRvIII-his (purchased from Sino Biological) (UniProt P00533 25-645); assay: BLI (OctetRED), antibody on anti-human Fc (AHC) biosensor, EGFRvIII-his in solution
T3 construct: Bought protein; also called EGFRvIII protein; not shown: his tag
From the text: as §1

B1: Murine anti-49G12-MMAF (antibody, V domains shown)
VH: EVQLLQSGAELVKPGASVKLSCTASGFNIKDYYMHWVKQRTEQGLEWIGRIDPEDGETKYAPKFQGKATMTADTSSNTAYLQLSSLTSEDTAVYYCASSAYYGRNYWGQGTTLTVSS
VL: QIVLTQSPAIMSASPGEKVTLTCSASSSLSSSYLYWYQQKPGSSPKLWIYSTSNLASGVPARFSGSGSGTSYSLTISSMEAEDAASYFCHQWSSYPYTFGGGTKLEIK
In the case of B1, the “IC50, cell killing of U87MG-hEGFRvIII cells (CellTiter-Glo)” value (“IC50, cell killing” below) [1] is reported as 0.02 nM.

B2: Murine anti-7E5-MMAF (antibody, V domains shown)
VH: EIQLQQSGPELVKPGASVKVSCKASGYSFTDYNMYWVKQSHGKSLEWIGYVDPSNGGTNYNQKFKGKATLTVDKSSSTAFMHLNSLTSEDSAVYYCARGFFDYWGQGTTLTVSS
VL: DIVMTQSPSSLTVTAGEKVTMSCKSSQSLLNSGNQKNYLTWYQQKPGQPPKLLIYWASNRESGVPDRFTGSGSGKDFTLTISSVQAEDLAVYYCQNDYRYPVTFGAGTKLELK
B2 was tested, and the “IC50, cell killing” value [1] was 0.02 nM.

B3: Murine anti-63A10-MMAF (antibody, V domains shown)
VH: QVQLQQSGAELARPGASVKMSCKASGYTFISFTMHWVKQRPGQGLEWIGYINPNSGYTKYNQKFKDKATLTAGQSSSTAYMQLSSLTSEDSAVYYCTRGGGRGFAYWGQGTLVTVSA
VL: DILMTQSPSSMSVSLGDTVTITCHASQDINSNIGWLQQKPGKSFKALIYHGTNLEDGVPSRFSGSGSGADYSLTISSLESEDFADYYCVQYAQFPFTFGSGTKLEIK
B3 was tested, and the “IC50, cell killing” value [1] was 0.01 nM.

B4: Murine anti-64B11-MMAF (antibody, V domains shown)
VH: EVQLQQSGAELVKPGASVKLSCTASGFNIKDYYMHWVKQRTEQGLEWIGRIDPEDGETKYAPKFQGKATITADTSSNTAYLQLSNLPSEDTAVYYCGCRTGGFAYWGQGTLVTVSA
VL: B3 VL with T20S, D28G, K103E
For B4, the “IC50, cell killing” value [1] was 0.04 nM.

B5: Murine anti-64F1-MMAF (antibody, V domains shown)
VH: B3 VH with I30S, F32Y, V37A, N54S, G73D, Q74K, A92I, T97A
VL: QIVLTQSPAIMSASPGERVTMTCSASSSVSYMYWYQQKPGSSPRLLIYDTSNLASGVPVRFSGSGSGTSYSLTISRVEAEDAATYYCQQWSSYSLTFGAGTKLELK
B5 was tested, and the “IC50, cell killing” value [1] was 0.01 nM.

B6: Murine anti-43H6-MMAF (antibody, V domains shown)
VH: INAEYAGGPGLVKPSQSLSLTCTVTDYSITSDYAWNWIRQFPGNKLEWMGYISYSGNTNYNPSLKSRISITRDTSKNQFFLQLNSVTTEDTATYYCARLGRGFAYWGQGTLVTVSA
VL: B3 VL with T20S, K42T, A46G, T52R, A69E, Q93H, F96P, S100A, I106L
With B6 the “IC50, cell killing” value [1] was 0.01 nM.

B7: Murine anti-53D8-MMAF (antibody, V domains shown)
VH: B3 VH with I30T, F32Y, N54S, K63I, G73D, Q74K
VL: B3 VL with T20S, A46G
In the case of B7, the “IC50, cell killing” value [1] is reported as 0.04 nM.

B8: Murine anti-43H6 (antibody, V domains shown)
VH: B6 VH
VL: B3 VL with T20S, K42T, A46G, T52R, A69E, Q93H, F96P, S100A, I106L
notes: Mouse hybridoma antibody; also called 43H6A1
With B8 the EC50 [2] was 4 nM.

B9: Murine anti-75G7-MMAF (antibody, V domains shown)
VH: EVQLQQSGPELVKPGASVKIPCKASGYTFTDYNMDWVKQSHGKSLEWIGDINPNNGDTIYNQKFKGKATLTVDKSSSTAYMELRSLTSEDTAVYYCARGDYDGYYPVYYAMDYWGQGTSVTVSS
VL: ENVLTQSPAIMSASPGEKVTMTCRASSSVSSSYLHWYQQKSGASPKLWIFSTSNLAAGVPARFSGSGSGTSYSLTVSSVEAEDAATYYCQQYSGYPLTFGAGTKLELK
For B9, the “IC50, cell killing” value [1] was 0.27 nM.

B10: Chimeric antibody c75G7C6 (antibody, human IgG1, V domains shown)
VH: B9 VH
VL: B9 VL
notes: also called chimeric antibody 75G7
B10 showed a Kd [3] of 220 nM, a koff [3] of 0.00362 s⁻¹ and a kon [3] of 16500 M⁻¹ s⁻¹. The Kd [4] was 1.45 nM, the koff [4] was 0.000132 s⁻¹ and the kon [4] was 91400 M⁻¹ s⁻¹.

B11: Murine anti-56F10-MMAF (antibody, V domains shown)
VH: B4 VH with Y32F, N85S, P87T
VL: B5 VL with R18K, M32L, R44S, V77M, S92R, Y93N, S94P, L95W, A99G, L105I
With B11 the “IC50, cell killing” value [1] was 0.15 nM.

B12: Murine anti-59G3-MMAF (antibody, V domains shown)
VH: DVQLQESGPGLVKPSQSLSLTCSVTGYSITSGYYWHWIRQFPENKLEWMGYISYDGSNIYNPSLKNRISITRDTSKNQFFLKLNSVTTEDTATYYCAINSDYALDYWGQGTSVTVSS
VL: B5 VL with R18K, V77M
With B12 the “IC50, cell killing” value [1] was 0.06 nM.

B13: Murine anti-46C4-MMAF (antibody, V domains shown)
VH: EVHLQQSVAELVRPGASVKLSCTASGFNIKNTYMHWVKQRPEQGLEWIGRIDPANGNTKYAPKFQGKATITADTSSNTAYLQLSSLTSEDTAIYYCASDFDYWGQGTTLTVSS
VL: DVLMTQTPLSLPVSLGDQVSISCRSSQSIVNSNGNTHLEWYLQKPGQSPKVLIYKVSKRFSGVPDRFSGSGSGTDFTLKISRVEAEDLGVYYCFQGSHVPYTFGGGTKLEIK
B13 was tested, and the “IC50, cell killing” value [1] was 0.15 nM.

B14: Humanized antibody h75G7C6-9 (antibody, human IgG1, V domains shown)
VH: QVQLVQSGAEVKKPGASVKVSCKASGYTFTDYNMDWVRQAPGQGLEWIGDINPNNADTIYNQKFKGRVTLTVDTSTSTVYMELSSLRSEDTAVYYCARGDYDGYYPVYYAMDYWGQGTTVTVSS
VL: EIVLTQSPATLSLSPGERATLSCRASSSVSSSYLHWYQQKPGQAPRLLIYSTSNLAAGIPARFSGSGSGTDFTLTISSLEPEDFAVYYCQQYSGYPLTFGGGTKVEIK
notes: Human IgG1 constant region, human kappa constant region
B14 gave a Kd [3] of 215 nM, a koff [3] of 0.00435 s⁻¹ and a kon [3] of 20200 M⁻¹ s⁻¹. It also gave a Kd [4] of 1.77 nM, a koff [4] of 0.000175 s⁻¹ and a kon [4] of 98900 M⁻¹ s⁻¹.

B15: Humanized antibody h75G7C6-13 (antibody, human IgG1, V domains shown)
VH: B14 VH with R38K, T74K
VL: B14 VL
notes: as for B14
With B15 the Kd [3] was 211 nM, the koff [3] was 0.00476 s⁻¹ and the kon [3] was 22500 M⁻¹ s⁻¹. It also gave a Kd [4] of 1.45 nM, a koff [4] of 0.000181 s⁻¹ and a kon [4] of 125000 M⁻¹ s⁻¹.
